The target in this assay is T1, Msi3, the sole Hsp110 of Candida albicans (Candida albicans, UniProt Q96VB9 1-701).
T1 construct: Msi3 (Hsp110) of Candida albicans; ORF amplified from genomic DNA and cloned into the pSMT3 vector; source: E. coli Rosetta2(DE3)pLysS, purified (HisTrap, Ulp1 cleavage, second HisTrap, HiTrap Q); not shown: His6, N-terminal, cleaved; Smt3, N-terminal, cleaved
T1 sequence (looked up): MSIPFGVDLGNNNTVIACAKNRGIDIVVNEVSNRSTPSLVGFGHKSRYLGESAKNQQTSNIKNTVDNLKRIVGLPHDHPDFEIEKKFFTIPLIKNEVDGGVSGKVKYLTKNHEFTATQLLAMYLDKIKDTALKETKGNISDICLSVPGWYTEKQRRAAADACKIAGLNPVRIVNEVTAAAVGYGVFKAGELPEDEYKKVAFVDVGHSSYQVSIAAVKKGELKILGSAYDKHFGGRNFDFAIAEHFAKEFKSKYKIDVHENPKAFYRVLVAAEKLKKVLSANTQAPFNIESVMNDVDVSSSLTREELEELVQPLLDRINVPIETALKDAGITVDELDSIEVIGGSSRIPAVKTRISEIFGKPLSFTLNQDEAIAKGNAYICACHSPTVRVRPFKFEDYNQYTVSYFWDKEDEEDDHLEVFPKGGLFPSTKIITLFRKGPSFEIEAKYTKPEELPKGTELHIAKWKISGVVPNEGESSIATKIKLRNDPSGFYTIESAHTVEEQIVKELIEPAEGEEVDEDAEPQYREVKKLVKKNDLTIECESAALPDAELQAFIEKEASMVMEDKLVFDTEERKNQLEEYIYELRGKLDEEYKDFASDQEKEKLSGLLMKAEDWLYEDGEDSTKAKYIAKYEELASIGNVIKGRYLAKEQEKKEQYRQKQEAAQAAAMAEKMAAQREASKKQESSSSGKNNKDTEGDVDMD
Briefly: native gel or EMSA; Msi3 (5 uM) and Ssa1 (10 uM) mixed with 2 mM ATP in buffer D (25 mM Hepes-KOH pH 7.5, 50 mM KCl, 10 mM Mg(OAc)2, 1 mM DTT), 45 min on ice; 10% native gel, Coomassie; with or without 100 uM 2H. The following applies: both partners purified.

B1: Ssa1, the major cytosolic Hsp70 of S. cerevisiae (natural protein)
chain: not shown
notes: Ssa1, Hsp70 from Saccharomyces cerevisiae; source: Pichia pastoris GS115, purified (HiTrap Q, butyl-Sepharose, ATP agarose)
In the case of B1, the binding result was “binds”.
